From article PMC6479007, “Phycobilisomes Harbor FNRL in Cyanobacteria” (mBio, 2019)

B1: ferredoxin-NADP+ oxidoreductase, large isoform (FNRL) (enzyme, UniProt Q55318 1-413, looked up)
chain: MYSPGYVATSSRQSDAGNRLFVYEVIGLSQSTMTDGLDYPIRRSGSTFITVPLKRMNQEMRRITRMGGKIVSIKPLEGDSPLPHTEGIAKPSQSEGSGSEAVANPAPESNKTMTTTPKEKKADDIPVNIYRPKTPYIGKVLENYPLVREGAIGTVQHLTFDLSAGDLRYLEGQSIGIIPPGEDDKGKPHKLRLYSIASTRHGDFGDDKTVSLCVRQLEYQNEAGETVQGVCSTYLCNIKEGDDIAITGPVGKEMLLPPDEDANIVMLATGTGIAPFRAFLWRMFKEQHEDYKFKGLAWLIFGIPKSENILYKDDLEKMAAEFPDNFRLTYAISREQQNAEGGRMYIQHRVAENAEELWNLMQNPKTHTYMCGLKGMEPGIDEAFTALAEQNGKEWTTFQREMKKEHRWHVETY
modifications: acetylation on the N terminus in a part of the molecules (6% in CpcG-PBS, 12% in CpcL-PBS)
notes: ferredoxin-NADP+ oxidoreductase, large isoform FNRL, Synechocystis sp; PCC 6803, slr1643; The small FNR isoform of the same gene is not meant; also called large FNR; Fd-NADP+ oxidoreductase; source: endogenous, Synechocystis 6803 wild-type and ΔAB cells; isolated with the phycobilisomes on a sucrose gradient

How the values were obtained:
[1] = target: B1; experiment: cross-linking; isolated CpcG-PBS and CpcL-PBS (partners co-purified in the native complex), 0.1 uM in 0.2 M K-phosphate, 1:1 BS3-H12/D12, 10 min in the dark at room temperature, cross-linker/PBS 10:1, 50:1 and 100:1; LysC and trypsin digestion, LC-MS/MS, ICC-CLASS and pLink; settings: both partners purified
[2] = target: T1, CpcL-PBS (CpcL-type phycobilisome, without allophycocyanin) (Synechocystis sp. strain PCC 6803 …, UniProt Q54715 1-162; Q54714 1-172; P73203 1-291; P73204 1-273; P73202 1-83; P74625 …); experiment: co-sedimentation; step-gradient sucrose density ultracentrifugation (370,000 x g overnight) of broken cells in 0.8 M K-phosphate pH 7.5 after 2% Triton X-100; blue bands analysed by SDS-PAGE (CBB R-250) and by trypsin digestion with LC-MS/MS label-free quantification (PEAKS; Protein Metrics); settings: partners not purified
T1 construct: phycocyanin alpha subunit CpcA, Synechocystis sp; PCC 6803; phycocyanin beta subunit CpcB, Synechocystis sp; rod linker protein CpcC1, Synechocystis sp; rod linker protein CpcC2, Synechocystis sp; rod-capping linker CpcD, Synechocystis sp; PCC 6803, ssl3093; CpcL (formerly CpcG2), Synechocystis sp; PCC 6803, sll1471; the first methionine is removed posttranslationally, threonine is the first …

| Binder | binding result [1] | fold higher FNRL content than in CpcG-PBS, normalised to CpcC1 [2] [fold] | ratio of FNRL content, CpcL-PBS to CpcG-PBS (manual quantification, Protein Metrics) [2] | ratio of FNRL content, CpcL-PBS/CpcG-PBS (PEAKS label-free quantification) [2] |
| --- | --- | --- | --- | --- |
| CpcA (phycocyanin alpha subunit) (natural protein, phycocyanin alpha subunit CpcA, Synechocystis sp; PCC 6803; cross-linked through its N-terminal M1; In the assay it stood inside the assembled phycobilisome; also called PC alpha subunit; source: endogenous, Synechocystis 6803 cells; in isolated phycobilisomes) not shown | binds |  |  |  |
| CpcB (phycocyanin beta subunit) (natural protein, UniProt Q54714 1-172, looked up, phycocyanin beta subunit CpcB, Synechocystis sp; PCC 6803; N-terminal peptide 1MFDVFTR found cross-linked through the primary amine of M1; In the assay it stood inside the assembled phycobilisome; also called PC beta subunit; source: endogenous, Synechocystis 6803 wild-type and ΔAB cells; in isolated CpcG-PBS and CpcL-PBS) MFDVFTRVVSQADARGEYLSGSQLDALSATVAEGNKRIDSVNRITGNASAIVSNAARALFAEQPQLIQPGGNAYTSRRMAACLRDMEIILRYVTYATFTGDASVLEDRCLNGLRETYVALGVPGASVAAGVQKMKEAALDIVNDPNGITRGDCSAIVAEIAGYFDRAAAAVA | binds |  |  |  |
| B1 |  | 2.4 | 1.9 | 1.99 |
